Measurements from patent publication US20050053923A1.

Tests used:
[1] = target: recombinant NS1 (rNS1), construct not stated; experiment: sandwich ELISA: coated mAb 3.1112G captures rNS1, rabbit anti-WNV-NS1 polyclonal detection
[2] = target: Semi-purified recombinant West Nile virus NS1 with 8-His tag (West Nile virus) (UniProt Q9Q6P4); experiment: as above
Sequence of UniProt Q9Q6P4 (Q9Q6P4 799-1144, tags or fused parts left off): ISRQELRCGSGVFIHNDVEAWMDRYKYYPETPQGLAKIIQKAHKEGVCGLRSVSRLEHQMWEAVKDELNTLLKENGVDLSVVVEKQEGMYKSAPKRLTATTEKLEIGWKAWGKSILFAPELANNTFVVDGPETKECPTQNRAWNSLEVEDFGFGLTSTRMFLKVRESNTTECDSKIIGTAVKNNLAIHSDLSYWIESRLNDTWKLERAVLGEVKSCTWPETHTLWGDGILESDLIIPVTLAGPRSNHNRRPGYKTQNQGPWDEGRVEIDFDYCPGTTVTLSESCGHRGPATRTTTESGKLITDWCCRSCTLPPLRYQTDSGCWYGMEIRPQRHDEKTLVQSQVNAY

“monoclonal antibody against Kunjin NS1 (3.1112G, Chemicon International)” showed an O.D. [1] of 0.577 O.D. 450 nm and an O.D. [2] of 0.887 O.D. 450 nm.
